Here are results for two substances from paper PMC5855701.

Experiment [1] has as its target GST-Rac1 (wild type Rac1 fused to GST) (UniProt P63000). Description: pull-down; GST fusion (GST-RacWT, GST-CA-Rac1 or GST-alone) on glutathione-agarose beads; 550-1000 ug total lysate of HP cells, unstimulated or treated with TGFβ1 (10 ng/mL) up to 60 min; 2 h at 4 °C; three washes; immunoblot for Trio or CdGAP (LiCor). A general note: Immunoblotting shows a protein as a band on a membrane.

Experiment [2] addresses GST-CA-Rac1 (constitutively-active Rac1 fused to GST) (UniProt P63000). The description is as above.

CdGAP, sequence (Q2M1Z3 whole entry): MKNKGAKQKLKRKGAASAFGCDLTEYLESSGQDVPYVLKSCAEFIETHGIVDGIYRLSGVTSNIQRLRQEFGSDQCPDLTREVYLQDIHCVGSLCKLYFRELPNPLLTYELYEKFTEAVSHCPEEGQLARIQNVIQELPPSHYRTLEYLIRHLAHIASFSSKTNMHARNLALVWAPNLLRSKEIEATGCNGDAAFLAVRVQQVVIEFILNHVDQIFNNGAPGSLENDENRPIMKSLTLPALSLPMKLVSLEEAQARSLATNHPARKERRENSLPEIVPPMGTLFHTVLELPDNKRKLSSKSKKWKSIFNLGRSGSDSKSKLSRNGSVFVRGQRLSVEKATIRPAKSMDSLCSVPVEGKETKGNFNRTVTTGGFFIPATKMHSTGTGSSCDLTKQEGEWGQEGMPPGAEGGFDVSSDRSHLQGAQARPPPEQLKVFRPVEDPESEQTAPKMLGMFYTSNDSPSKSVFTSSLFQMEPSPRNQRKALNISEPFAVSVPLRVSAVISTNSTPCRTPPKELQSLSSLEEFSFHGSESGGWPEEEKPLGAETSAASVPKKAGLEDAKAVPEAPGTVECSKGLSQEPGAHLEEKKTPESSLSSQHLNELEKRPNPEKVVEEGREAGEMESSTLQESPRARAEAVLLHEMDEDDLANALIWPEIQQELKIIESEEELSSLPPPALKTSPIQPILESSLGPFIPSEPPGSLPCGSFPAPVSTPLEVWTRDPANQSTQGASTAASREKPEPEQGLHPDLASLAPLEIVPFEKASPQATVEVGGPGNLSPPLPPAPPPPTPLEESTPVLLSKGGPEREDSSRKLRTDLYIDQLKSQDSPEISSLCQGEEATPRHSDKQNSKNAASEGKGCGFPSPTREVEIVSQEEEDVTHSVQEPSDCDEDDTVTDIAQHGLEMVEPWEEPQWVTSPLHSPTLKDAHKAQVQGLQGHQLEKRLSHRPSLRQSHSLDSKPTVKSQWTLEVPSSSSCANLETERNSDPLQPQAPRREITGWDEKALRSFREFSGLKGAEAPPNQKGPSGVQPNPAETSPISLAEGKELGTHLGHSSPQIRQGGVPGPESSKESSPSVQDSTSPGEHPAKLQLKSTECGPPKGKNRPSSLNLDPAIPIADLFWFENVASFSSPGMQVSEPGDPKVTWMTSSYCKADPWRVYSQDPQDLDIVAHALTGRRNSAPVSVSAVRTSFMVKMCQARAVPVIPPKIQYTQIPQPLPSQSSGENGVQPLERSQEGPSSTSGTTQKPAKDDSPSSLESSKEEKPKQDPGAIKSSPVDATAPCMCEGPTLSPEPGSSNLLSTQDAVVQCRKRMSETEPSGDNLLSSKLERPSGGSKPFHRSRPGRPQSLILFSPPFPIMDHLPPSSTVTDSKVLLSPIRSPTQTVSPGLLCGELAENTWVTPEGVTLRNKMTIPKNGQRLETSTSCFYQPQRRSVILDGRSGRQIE

In experiment [1], “Trio, O75962 1-3097 (natural protein; other documents disagree on this pair)” showed a fold change of Trio bound to GST-Rac1, 45 min TGFβ1 against unstimulated of 1.82 fold.

In experiment [2], “CdGAP (from UniProt Q2M1Z3 1-1444) (natural protein)” registered a fold change of CdGAP pulled down by GST-CA-Rac1, 30 min TGFβ1 against 0 min of 1.55 fold; a fold change of CdGAP pulled down by GST-CA-Rac1, 45 min TGFβ1 against 0 min of 1.56 fold; a fold change of CdGAP pulled down by GST-CA-Rac1, 60 min TGFβ1 against 0 min of 1.53 fold.
